Assay results published in the RNAGym collection of RNA variant scans (doi:10.1093/molbev/msab373).

B1: Azoarcus group I ribozyme (parent)
chain: GUGCCUUGCGCCGGGAAACCACGCAAGGGAUGGUGUCAAAUUCGGCGAAACCUAAGCGCCCGCCCGGGCGUAUGGCAACGCCGAGCCAAGCUUCGGCGCCUGCGCCGAUGAAGGUGUAGAGACUAGACGGCACCCACCUAAGGCAAACGCUAUGGUGAAGGCAUAGUCCAGGGAGUGGCGAAAGUCACACAAACCGG

Variants of: B1
Test: reverse-splicing fitness (ratio to wild type); higher = more active; in vitro selection; Mg2+ level not given
How it was run: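 An in vitro group I ribozyme library with randomized positions was T7-transcribed and gel-purified. In triplicate, 10 pmol RNA in EPPS pH 7.5 was reacted with 50 pmoles of a 30-nt RNA substrate for 1 h at 37 °C across several added MgCl2 levels (1–48 mM), then stopped with EDTA. Products were reverse transcribed from a substrate-complementary primer, PCR-amplified and sequenced (HiSeq 4000). Fitness is a variant's read proportion after selection over that before, normalised to wild type.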

First: C82G A111G A120U A145U C150G C169A
Second: C82G A111G A120U A145U C150G C169U
The reverse-splicing fitness of the first is higher: 0.00331 for the first, 0.00254 for the second.

Going from C82G A111G A120U A145U C150U C169A to C82G A111G A120U A145U C150U C169U, the reverse-splicing fitness rises from 0.00289 to 0.00393.

Going from C82G A111G A120U A145U C150U C169G to C82G A111G A120U A145U C169U U176A, the reverse-splicing fitness falls from 0.00324 to 0.00226.

Compared with C82G A111G A120U A145U C169U U176C, C82G A111G A120U A145U C169U U176G is lower in reverse-splicing fitness: 0.0031 for the first, 0.00199 for the second.

Compared with C82G A111G A120U A145U C169A U176C, C82G A111G A120U A145U C169A U176A is lower in reverse-splicing fitness: 0.00207 for the first, 0.00206 for the second.

Compared with C82G A111G A120U A145U C169A U176G, C82G A111G A120U A145U C150U U176A is higher in reverse-splicing fitness: 0.0018 for the first, 0.0117 for the second.

First: C82G A111G A120U A145U C150U U176C
Second: C82G A111G A120U A145U C150U U176G
The reverse-splicing fitness of the first is higher: 0.0184 for the first, 0.00444 for the second.

Going from C82G A111G A145U C150G C169U to C82G A111G A145U C150G C169G, the reverse-splicing fitness falls from 0.00934 to 0.00774.

Compared with C82G A111G A145U C150G C169A, C82G A111G A145U C150A is higher in reverse-splicing fitness: 0.0092 for the first, 0.0314 for the second.

Going from C82G A111G A145U C150G to C82G A111G A145C, the reverse-splicing fitness rises from 0.0338 to 0.392.

First: C82G A111G A145G
Second: C82G A111G A145U
The reverse-splicing fitness of the first is lower: 0.431 for the first, 0.454 for the second.

First: C82G A111G A120U A145G C150G C169A U176G
Second: C82G A111G A120U A145G C150G C169A U176C
The reverse-splicing fitness of the first is lower: 0.00448 for the first, 0.0099 for the second.

Compared with C82G A111G A120U A145G C150G C169A U176A, C82G A111G A145C C150A U176A is higher in reverse-splicing fitness: 0.0115 for the first, 0.0205 for the second.

Going from C82G A111G A145C C150A U176C to C82G A111G A145C C150A U176G, the reverse-splicing fitness falls from 0.0173 to 0.00955.

First: C82G A111G A120U A145U C150U C169G U176A
Second: C82G A111G A120U A145U C150U C169G U176C
The reverse-splicing fitness of the first is lower: 0.0031 for the first, 0.00343 for the second.

Compared with C82G A111G A120U A145U C150U C169G U176G, C82G A111G A120U C150U C169A U176G is lower in reverse-splicing fitness: 0.00218 for the first, 0.00204 for the second.

Going from C82G A111G A120U C150U C169A U176A to C82G A111G A120U C150U C169A U176C, the reverse-splicing fitness falls from 0.00519 to 0.00376.

Compared with C82G A111G A120U A145G C150U C169G U176C, C82G A111G A120U A145G C150U C169G U176G is lower in reverse-splicing fitness: 0.00595 for the first, 0.00241 for the second.

Going from C82G A111G A120U A145G C150U C169G U176A to C82G A111G A120U A145U C150G C169A U176A, the reverse-splicing fitness falls from 0.0105 to 0.00415.

Compared with C82G A111G A120U A145U C150G C169A U176C, C82G A111G A120U A145U C150G C169A U176G is lower in reverse-splicing fitness: 0.00298 for the first, 0.00219 for the second.

Going from C82G A111G A145C C150G C169U U176C to C82G A111G A145C C150G C169U U176A, the reverse-splicing fitness falls from 0.013 to 0.00922.

First: C82G A111G A145C C150G C169U U176G
Second: C82G A111G A145C C150G U176C
The reverse-splicing fitness of the first is lower: 0.00582 for the first, 0.0294 for the second.

First: C82G A111G A145C C150G U176G
Second: C82G A111G A145C C150G U176A
The reverse-splicing fitness of the first is lower: 0.00683 for the first, 0.0197 for the second.

Going from C82G A111G A120U A145U C150U C169U U176A to C82G A111G A120U A145U C150U C169U U176G, the reverse-splicing fitness falls from 0.00291 to 0.00196.

Going from C82G A111G A120U A145U C150U C169U U176C to C82G A111G A145G C150U C169A U176A, the reverse-splicing fitness rises from 0.00263 to 0.0171.

First: C82G A111G A145G C150U C169A U176G
Second: C82G A111G A145G C150U C169A U176C
The reverse-splicing fitness of the first is lower: 0.00698 for the first, 0.0189 for the second.

First: C82G A111G A145C C150U C169G U176C
Second: C82G A111G A145C C150U C169G U176G
The reverse-splicing fitness of the first is higher: 0.0114 for the first, 0.00619 for the second.

Going from C82G A111G A145C C150U C169G U176A to C82G A111G A120U A145G C150G C169G U176A, the reverse-splicing fitness falls from 0.0203 to 0.00894.

Going from C82G A111G A120U A145G C150G C169G U176G to C82G A111G A120U A145G C150G C169G U176C, the reverse-splicing fitness rises from 0.00372 to 0.00607.

Compared with C82G A111G A145C C150A C169U U176A, C82G A111G A145C C150A C169U U176G is lower in reverse-splicing fitness: 0.0123 for the first, 0.00582 for the second.

Compared with C82G A111G A145C C150A C169U U176C, C82G A111G A145C C150U U176C is higher in reverse-splicing fitness: 0.00961 for the first, 0.0592 for the second.

Compared with C82G A111G A145C C150U U176G, C82G A111G A145C C150U U176A is higher in reverse-splicing fitness: 0.0267 for the first, 0.0557 for the second.

First: C82G A111G A145C C150U C169A U176A
Second: C82G A111G A145C C150U C169A U176G
The reverse-splicing fitness of the first is higher: 0.0123 for the first, 0.00694 for the second.

Going from C82G A111G A145C C150U C169A U176C to C82G A111G A120U A145U C150G C169G U176A, the reverse-splicing fitness falls from 0.00686 to 0.0025.

Going from C82G A111G A120U A145U C150G C169G U176G to C82G A111G A120U A145U C150G C169G U176C, the reverse-splicing fitness rises from 0.00197 to 0.00256.

First: C82G A111G A120U A145U C150G C169U U176C
Second: C82G A111G A120U A145U C150G C169U U176A
The reverse-splicing fitness of the first is higher: 0.00309 for the first, 0.00283 for the second.

Compared with C82G A111G A120U A145U C150G C169U U176G, C82G A111G A120U A145U C150G U176C is higher in reverse-splicing fitness: 0.00239 for the first, 0.00556 for the second.

First: C82G A111G A120U A145U C150G U176A
Second: C82G A111G A120U A145U C150G U176G
The reverse-splicing fitness of the first is higher: 0.00457 for the first, 0.00264 for the second.

Compared with C82G A111G A120U A145G C150U C169A U176C, C82G A111G A120U A145G C150U C169A U176A is higher in reverse-splicing fitness: 0.00519 for the first, 0.00839 for the second.

Going from C82G A111G A120U A145G C150U C169A U176G to C82G A111G A145C C169U U176G, the reverse-splicing fitness rises from 0.00254 to 0.00545.

First: C82G A111G A145C C169U U176C
Second: C82G A111G A145C C169U U176A
The reverse-splicing fitness of the first is lower: 0.0106 for the first, 0.0135 for the second.

First: C82G A111G A120U A145G C150U
Second: C82G A111G A120U A145G C150G
The reverse-splicing fitness of the first is higher: 0.0498 for the first, 0.0102 for the second.
